Experiments:
[1] = molecular target: T1, GST-Asp1587-Arg1668-H
T1 chain: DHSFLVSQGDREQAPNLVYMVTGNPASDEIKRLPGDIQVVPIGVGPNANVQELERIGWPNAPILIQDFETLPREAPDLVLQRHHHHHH

[2] = molecular target: T2, GST-Asp1596-Arg1668-H
T2 chain: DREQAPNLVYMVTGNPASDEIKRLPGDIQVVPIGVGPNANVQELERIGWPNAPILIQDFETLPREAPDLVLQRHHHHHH

[3] = molecular target: T3, GST-Asp1459-Arg1668-H
T3 chain: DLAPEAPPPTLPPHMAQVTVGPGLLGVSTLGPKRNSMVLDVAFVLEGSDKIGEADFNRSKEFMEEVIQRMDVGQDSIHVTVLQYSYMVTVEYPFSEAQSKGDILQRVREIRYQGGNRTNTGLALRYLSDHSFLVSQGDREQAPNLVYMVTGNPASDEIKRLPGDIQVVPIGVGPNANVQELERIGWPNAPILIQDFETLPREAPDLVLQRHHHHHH

[4] = molecular target: T4, GST-Asp1596-Arg1659-H
T4 chain: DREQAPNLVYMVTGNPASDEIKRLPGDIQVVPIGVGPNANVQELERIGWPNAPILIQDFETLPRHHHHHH

[5] = molecular target: T5, GST-Glu1554-Arg1668-H
T5 chain: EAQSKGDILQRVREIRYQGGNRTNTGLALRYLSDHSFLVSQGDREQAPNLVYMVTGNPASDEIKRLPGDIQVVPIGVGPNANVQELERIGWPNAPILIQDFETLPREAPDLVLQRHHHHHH

B1: ADAMTS-13 (von Willebrand factor cleaving enzyme), as present in normal plasma (protein)
chain: AAGGILHLELLVAVGPDVFQAHQEDTERYVLTNLNIGAELLRDPSLGAQFRVHLVKMVILTEPEGAPNITANLTSSLLSVCGWSQTINPEDDTDPGHADLVLYITRFDLELPDGNRQVRGVTQLGGACSPTWSCLITEDTGFDLGVTIAHEIGHSFGLEHDGAPGSGCGPSGHVMASDGAAPRAGLAWSPCSRRQLLSLLSAGRARCVWDPPRPQPGSAGHPPDAQPGLYYSANEQCRVAFGPKAVACTFAREHLDMCQALSCHTDPLDQSSCSRLLVPLLDGTECGVEKWCSKGRCRSLVELTPIAAVHGRWSSWGPRSPCSRSCGGGVVTRRRQCNNPRPAFGGRACVGADLQAEMCNTQACEKTQLEFMSQQCARTDGQPLRSSPGGASFYHWGAAVPHSQGDALCRHMCRAIGESFIMKRGDSFLDGTRCMPSGPREDGTLSLCVSGSCRTFGCDGRMDSQQVWDRCQVCGGDNSTCSPRKGSFTAGRAREYVTFLTVTPNLTSVYIANHRPLFTHLAVRIGGRYVVAGKMSISPNTTYPSLLEDGRVEYRVALTEDRLPRLEEIRIWGPLQEDADIQVYRRYGEEYGNLTRPDITFTYFQPKPRQAWVWAAVRGPCSVSCGAGLRWVNYSCLDQARKELVETVQCQGSQQPPAWPEACVLEPCPPYWAVGDFGPCSASCGGGLRERPVRCVEAQGSLLKTLPPARCRAGAQQPAVALETCNPQPCPARWEVSEPSSCTSAGGAGLALENETCVPGADGLEAPVTEGPGSVDEKLPAPEPCVGMSCPPGWGHLDATSAGEKAPSPWGSIRTGAQAAHVWTPAAGSCSVSCGRGLMELRFLCMDSALRVPVQEELCGLASKPGSRREVCQAVPCPARWQYKLAACSVSCGRGVVRRILYCARAHGEDDGEEILLDTQCQGLPRPEPQEACSLEPCPPRWKVMSLGPCSASCGLGTARRSVACVQLDQGQDVEVDEAACAALVRPEASVPCLIADCTYRWHVGTWMECSVSCGDGIQRRRDTCLGPQAQAPVPADFCQHLPKPVTVRGCWAGPCVGQGTPSLVPHEEAAAPGRTTATPAGASLEWSQARGLLFSPAPQPRRLLPGPQENSVQSSACGRQHLEPTGTIDMRGPGQADCAVAIGRPLGEVVTLRVLESSLNCSAGDMLLLWGRLTWRKMCRKLLDMTFSSKTNTLVVRQRCGRPGGGVLLRYGSQLAPETFYRECDMQLFGPWGEIVSPSLSPATSNAGGCRLFINVAPHARIAIHALATNMGAGTEGANASYILIRDTHSLRTTAFHGQQVLYWESESSQAEMEFSEGFLKAQASLRGQYWTLQSWVPEMQDPQSWKGKEGT
cleavage fragment after 2 h reaction with normal plasma at 37 C (SDS-PAGE, western blot with anti-GST antibody) [1]: the expected fragment (indicated by the arrowheads in the figure) was clearly yielded | cleavage fragment after 2 h reaction with normal plasma at 37 C (SDS-PAGE, western blot with anti-GST antibody) [2]: the expected fragment (indicated by the arrowheads in the figure) was clearly yielded | cleavage fragment after reaction with plasma of TTP patients and family members against normal plasma (SDS-PAGE, western blot with anti-GST antibody) [2]: When each of plasma samples from two patients was reacted with GST-Asp^1596Arg^1668H, there was not detected the fragment which is yielded by the reaction with normal plasma; with plasma of about one-half ADAMTS-13 activity the fragment was yielded at smaller amounts than with the normal plasma | cleavage fragment after 2 h reaction with normal plasma at 37 C (SDS-PAGE, western blot with anti-GST antibody) [3]: did not give the fragment or was difficult to give the fragment | cleavage fragment after 2 h reaction with normal plasma at 37 C (SDS-PAGE, western blot with anti-GST antibody) [4]: did not give the fragment or was difficult to give the fragment | cleavage fragment after 2 h reaction with normal plasma at 37 C (SDS-PAGE, western blot with anti-GST antibody) [5]: a very faint band was produced at the expected position

— US20070065895
